Source: publication PMC12610401, “The miR395b–ABI5 module regulates amylopectin branching and biosynthesis and affects lotus root quality”

Key:
[1] = target: T1, NnABI5 (ABA Insensitive 5) (Nelumbo nucifera, UniProt A0A1U8B646 1-478); test: EMSA; unlabelled probe weakens the shift in a dose-dependent way; Not stated; EMSA with Beyotime chemiluminescent nucleic acid detection kit; settings: protein: recombinant; tags: His (pCold TF vector); chain copies: 2; blunt
T1 sequence: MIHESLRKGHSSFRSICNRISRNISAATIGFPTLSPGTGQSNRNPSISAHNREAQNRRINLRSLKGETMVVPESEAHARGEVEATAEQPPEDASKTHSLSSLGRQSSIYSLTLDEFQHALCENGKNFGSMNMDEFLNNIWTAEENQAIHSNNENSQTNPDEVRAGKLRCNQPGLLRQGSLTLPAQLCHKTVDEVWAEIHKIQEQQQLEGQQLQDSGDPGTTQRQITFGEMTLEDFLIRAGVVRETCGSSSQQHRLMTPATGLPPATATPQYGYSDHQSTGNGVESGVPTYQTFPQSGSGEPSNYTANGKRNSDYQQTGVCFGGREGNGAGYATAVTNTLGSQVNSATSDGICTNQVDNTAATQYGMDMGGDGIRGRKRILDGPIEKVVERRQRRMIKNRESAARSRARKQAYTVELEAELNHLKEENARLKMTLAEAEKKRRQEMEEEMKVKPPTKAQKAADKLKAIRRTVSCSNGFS

[2] = target: T1, NnABI5 (ABA Insensitive 5); test: EMSA; Not stated; EMSA with Beyotime chemiluminescent nucleic acid detection kit; settings: protein: recombinant; tags: His (pCold TF vector); chain copies: 2; blunt

B1: NnSBEII promoter probe (WT) (dsDNA)
DNA 1: GTGGCAACGACTGGTCACGTGACTTACGTCACCCAT
DNA 2: ATGGGTGACGTAAGTCACGTGACCAGTCGTTGCCAC
B1: binds [1].

B2: NnSS2 promoter mutant probe (dsDNA)
DNA 1: CTTCCTCGGTTTTTCAAAAAATTTCTTCTGGAGTAT
DNA 2: ATACTCCAGAAGAAATTTTTTGAAAAACCGAGGAAG
B2: no binding [2].

B3: NnSS2 promoter probe (WT) (dsDNA)
DNA 1: CTTCCTCGGTTTTTCCACGTGTTTCTTCTGGAGTAT
DNA 2: ATACTCCAGAAGAAACACGTGGAAAAACCGAGGAAG
B3: binds [1].

B4: NnSBEII promoter mutant probe (dsDNA)
DNA 1: GTGGCAACGACTGGTAAAAAAACTTACGTCACCCAT
DNA 2: ATGGGTGACGTAAGTTTTTTTACCAGTCGTTGCCAC
B4: no binding [2].
